Fewer inactive variants are shown than the library holds.
B1: TPR 5TU (parent)
chain: GGAUCUUCUCGAUCUAACAAAAAAGACAAAUCUGCCACAAAGCUUGAGAGCAUCUUCGGAUGCAGAGGCGGCAGCCUUCGGUGGCGCGAUAGCGCCAACGUUCUCAACUAUGACACGCAAAACGCGUGCUCCGUUGAAUGGAGUUUAUCAUG

Variants of: B1
Assay: polymerase ribozyme fitness, log enrichment relative to wild type (log ratio); higher = more active; in vitro selection for triplet polymerase activity
In short: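 Mutant libraries of each subunit of a heterodimeric triplet polymerase ribozyme were built by PCR and transcribed. Each library went through one round of in vitro selection in triplicate: annealing with biotinylated primer, partner subunit and triplets, frozen incubation at −7 °C, gel excision of extended constructs, streptavidin-bead capture and RT-PCR. Input and output libraries were Illumina-sequenced; only genotypes with ≥10 input reads and ≥1 read per output were kept. Fitness is log2(genotype enrichment/wild-type enrichment), using inverse-variance-weighted replicate averages.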

Variant	polymerase ribozyme fitness (log ratio)
C87G C105U U127C	-4.1
A21U G128A	-3.26
A41C A106G G133C A147U	-1.68
A122U C149U	-0.616
C5G C96U	-0.763
A21C C116U	0.668
C87U A137G U148C	-3.87
A60G C69A G88A C95G U101A A106C A107G A119C U148A	≤ -4.2
U7G C69G C93A	≤ -4.2
U53A C54A C108G G140A	≤ -4.2
A12G A22G A39U A47U G92U A97G U101G	≤ -4.2
A41C C103A	-1.44
G84A A120C C125U G136A	0.204
A22G C108G C123G A150G	≤ -4.2
A20G A24U U111A A142U G143U	≤ -4.2
C27G G50A	-3.72
A12G A17G C93U A120G	-0.897
C35U C75G U127C	≤ -4.2
C36A U56G C85A	≤ -4.2
A19U A40G G124A	-4.11
U55A U78A C85U C93U	≤ -4.2
U13G G141C	-1.88
A17U G83U	-1.65
U45A A47U G65C A66U G86C C87G C131G	≤ -4.2

Variant	polymerase ribozyme fitness (log ratio)
C93U C114A	-3.41
G34A C87A G141A	≤ -4.2
C10G A89C U148C	≤ -4.2
G88U U90C G133C A137C	≤ -4.2
A19U A106G G143C	-2.4
A12C C93G A98U	-3.05
U55G G59C G94C U102A U127A U135C	≤ -4.2
U4G C14U A52U C63U C85U	-4.13
A89U A91U C93U C95A	≤ -4.2
A49U C93U	-1.38
C76A C85U U145C	-0.371
A37C C93U G136C G141U	-3.34
C95U C131G	-3.24
A23U A24C G25U G94C A119C C123A G141C	≤ -4.2
C38U U44A A47U G67C C69U G84A	≤ -4.2
A64C C85A	≤ -4.2
G48C G126U	-0.372
U90C	-2.87
G84A C131A	-2.79
A22U A41U	0.0369
C96U G100U	-3.13
A49G U101C C114G U134C	-3.89
C38A A89C C93G C95G C108U U135C	≤ -4.2
A60U C85A U145A	-1.8

Variant	polymerase ribozyme fitness (log ratio)
U56A A73G	-0.236
C14G A30U U33G A49C A52U C72G A73G C87U U144G	≤ -4.2
G11A C43U C54U A106U C108G G112A	≤ -4.2
A17G G84A C93A A98G C129G	≤ -4.2
U6A G86A C87G	≤ -4.2
A16G G94U C95A U134G	-3.52
C76A G152A	-2.86
C8U C43U C85U G100A A142U	≤ -4.2
C32A U45A A60G C75U G81A U90G C116A	≤ -4.2
A22G C76U	0.868
C35G U55G C85G U144A	≤ -4.2
A41C A91C A106U U148C	≤ -4.2
A41U A66C G88A A113C G143A U146C	≤ -4.2
G42A A52G U61G G86A C114A	-3.88
C27U G58A A60G G84U	-1.42
U31C U55A U101C	0.401
U77C C93U G100A A119U A150C	≤ -4.2
A3G C8U G25C U45G U55G G81C C95U C114U G117U A120G A122G	≤ -4.2
A40U C79G A91G	≤ -4.2
U6A C27U A41C U55A G62C G71C C85A G143U	≤ -4.2
U82C	-0.0678
A17G G70A C75G C96U C99G	-4.15
C93A A106C A120U	-2.8
C27U C95U U102A	-2.66

Variant	polymerase ribozyme fitness (log ratio)
C27G A28C G48A U55A G68C C87U C108G	≤ -4.2
A16G A17G C57U A64C A91U C95U C118G G124A G126A G133C	≤ -4.2
A37C U55A G133C U144A	-2.6
U9C A73U	-4.1
U77A C93A A113C	≤ -4.2
C14G C43A G88U A110U G112C U127G	≤ -4.2
A39U C43U U111G	≤ -4.2
A60G U61G G81C A122C A142U	-3.02
U7G A26C U31G U55A G86C G126U	≤ -4.2
A89G U146G C149G	-4.1
G58C G83A G84U G92U U135A U139G G141A	≤ -4.2
G46A A97C C103G C123A G141C A147C C149A	≤ -4.2
U31C U102A	0.128
A30G C76U C96U	≤ -4.2
C85A C118A	-0.973
A12G C85U C118G C125A	-0.473
C14A A37U C75G G94A A113G C114G C149A	≤ -4.2
A3G G11C C87A A91U A137G	≤ -4.2
U7C C18G G94A G117C	-3.67
C87A G140C	≤ -4.2
A49G A52C	-1.27
C10U A16G G84U G140U	≤ -4.2
U4G A106G	-0.112
C51U C99U	-0.392

Variant	polymerase ribozyme fitness (log ratio)
A40G A52C A66U C75G C79G A120C	≤ -4.2
C72U G126U C132A	-4.12
A17U U44A C54G U55G G62C C87A C99U A150G G152C	≤ -4.2
C10U A22C G46A G50A C79G C85U C105U	≤ -4.2
A16C C76G C85U G133C C149A	≤ -4.2
C72G C96U C116U	≤ -4.2
A20U A24G C32G U78A G83C	≤ -4.2
A24G C54A	-3.54
C36U A60C C63U C103G	≤ -4.2
A22G G84A A91C C103G U104G	≤ -4.2
G11U A23U C57U G86A	≤ -4.2
U53G C93A C95A A97U A98C G100U U130G G140U	≤ -4.2
A12G A40U A60C G88U G117C	≤ -4.2
A41C G86U A89G G140A	≤ -4.2
C18U G34U G70A C85U C87U A91C G117A	≤ -4.2
A26U C85U	-1.63
A49C U53A G81C A98U G100A C103A	≤ -4.2
U9C A12U C27G G48A G74A G88A	≤ -4.2
C57U G84A	-0.782
G83A C95G	-1.23
C14G C18U	-1.18
A52C U55G G58C G59A A66C	≤ -4.2
C54U C85A C96U A97C A98G A121U	≤ -4.2
G92C U135G A142U	-4.1

Variant	polymerase ribozyme fitness (log ratio)
G84A G117U U139G U145C	-0.527
G42A G86A C118A	≤ -4.2
G59A G136C	-2.89
U53A U56A G58A C85U	0.824
A20U C125A	-2.05
U45G C57A C93A G124A	-3.64
A52C G88A U146G A150C	≤ -4.2
A17G U56A G62C G152A	-3.06
A49G A60U	-1.62
U15G G92U A147U	0.901
U77G A89U C95A C114U C125G	≤ -4.2
A3C G86A C125U	-2.79
A12U A52C G84A A98G	-2.65
A21C A41U C76U G84A C95U U111G	-4.18
A12C C85U C116A A122G G143U	≤ -4.2
A47C G94A	-2.54
U55A U61A C79A G83A U90G G143A	≤ -4.2
U13A A20U A28C C93U G136C A137U	≤ -4.2
C10U A23U U90G	≤ -4.2
A20C G25U C51A U77G G94C A115U G140C	≤ -4.2
C57A C85U A106U C125G G136U U146G	-3.77
U33G G50A C93G G128A	≤ -4.2
A23U C43U U61G G84U A89C C108G U145A	≤ -4.2
C54U C93G	-3.72

Variant	polymerase ribozyme fitness (log ratio)
G11U C93U A119C C149U	-3.06
A30G G46U G68U A147C	≤ -4.2
G80A C132U	-0.678
A3U C85G C93G G136A A142C	≤ -4.2
A24U C35U C38G A89U A91U	-3.93
C36U U134G U148A	-4.04
C76U G88U	≤ -4.2
C85G A142C	-2.98
A89U C93U	-1.6
A29U G50U C116U A147U	-4.04
U7A A17C A142C	-3.31
G62A C69U	-2.82
U55G C85G C132U	-2.9
A28G G42U	≤ -4.2
C118G A122C G141C	-2.43
U53A C69U A89G G94U C96U A115U U148G U151G	≤ -4.2
G74A A106G A122U	≤ -4.2
A40U A122C	0.0565
A16U A22U G117A C132A U151G	≤ -4.2
A3G A39U G59C G83U	-3.56
U13C A20C G50C	-3.15
A97G A107G	-4.13
U82G G84A U145C	-0.385
